Reference: publication PMC7886851 (Scientific Reports, 2021)

B1: YidC23C labelled with Atto520 (YidC W23C, single cysteine) (natural protein)
chain: MDSQRNLLVIALLFVSFMIWQACEQDKNPQPQAQQTTQTTTTAAGSAADQGVPASGQGKLISVKTDVLDLTINTRGGDVEQALLPAYPKELNSTQPFQLLETSPQFIYQAQSGLTGRDGPDNPANGPRPLYNVEKDAYVLAEGQNELQVPMTYTDAAGNTFTKTFVLKRGDYAVNVNYNVQNAGEKPLEISSFGQLKQSITLPPHLDTGSSNFALHTFRGAAYSTPDEKYEKYKFDTIADNENLNISSKGGWVAMLQQYFATAWIPHNDGTNNFYTANLGNGIAAIGYKSQPVLVQPGQTGAMNSTLWVGPEIQDKMAAVAPHLDLTVDYGWLWFISQPLFKLLKWIHSFVGNWGFSIIIITFIVRGIMYPLTKAQYTSMAKMRMLQPKIQAMRERLGDDKQRISQEMMALYKAEKVNPLGGSFPLLIQMPIFLALYYMLMGSVELRQAPFALWIHDLSAQDPYYILPILMGVTMFFIQKMSPTTVTDPMQQKIMTFMPVIFTVFFLWFPSGLVLYYIVSNLVTIIQQQLIYRGLEKRGLHSREKKKS
modifications: Atto520 (maleimide dye) on cysteine 23; labelling efficiency 18%
B2: SecYEG with SecY142C labelled with Atto647N (complex)
chain 1: MAKQPGLDFQSAKGGLGELKRRLLFVIGALIVFRIGSFIPIPGIDAAVLAKLLEQQRGTIIEMFNMFSGGALSRASIFALGIMPYISASIIIQLLTVVHPTLAEIKKEGESGRRKISQYTRYGTLVLAIFQSIGIATGLPNCPGMQGLVINPGFAFYFTAVVSLVTGTMFLMWLGEQITERGIGNGISIIIFAGIVAGLPPAIAHTIEQARQGDLHFLVLLLVAVLVFAVTFFVVFVERGQRRIVVNYAKRQQGRRVYAAQSTHLPLKVNMAGVIPAIFASSIILFPATIASWFGGGTGWNWLTTISLYLQPGQPLYVLLYASAIIFFSFFYTALVFNPRETADNLKKSGAFVPGIRPGEQTAKYIDKVMTRLTLVGALYITFISLIPEFMRDAMKVPFYFGGTSLLIVVVVIMDFMAQVQTLMMSSQYESALKKANLKGYGR
chain 2: MSANTEAQGSGRGLEAMKWVVVVALLLVAIVGNYLYRDIMLPLRALAVVILIAAAGGVALLTTKGKATVAFAREARTEVRKVIWPTRQETLHTTLIVAAVTAVMSLILWGLDGILVRLVSFITGLRF
chain 3: MYEALLVVFLIVAIGLVGLIMLQQGKGADMGASFGAGASATLFGSSGSGNFMTRMTALLATLFFIISLVLGNINSNKTNKGSEWENLSAPAKTEQTQPAAPAKPTSDIPN
modifications: Atto647N (maleimide dye) on cysteine 142; labelling efficiency 24%

Tests used:
[1] = target: B2; experiment: FRET or BRET; ensemble FRET in detergent: 0.55 µM YidC-Atto520 (donor) in 0.03% dodecyl maltoside titrated with increasing SecYEG-Atto647N (acceptor); excitation 516 nm, donor at 538 nm, acceptor at 669 nm; buffer controls for dilution; Kd by Lineweaver-Burk linearisation; conditions: both partners purified
[2] = target: B1; experiment: as above; conditions: both partners purified

B1
Kd [1]: 0.027 ± 0.01 µM

B2
stoichiometry N [2]: 1
